# T1: CbbS, Rubisco small subunit (as in Rubisco-strep) (H. neapolitanus, UniProt P45686 1-110)
# T1 construct: Rubisco small subunit CbbS, H. neapolitanus; residues M4-N110 modelled; Subunit of m2, written on its own for the contacts in the cryo-EM structure; source: E. coli, coexpressed with GroEL/ES, purified as Rubisco-strep
# T1 sequence: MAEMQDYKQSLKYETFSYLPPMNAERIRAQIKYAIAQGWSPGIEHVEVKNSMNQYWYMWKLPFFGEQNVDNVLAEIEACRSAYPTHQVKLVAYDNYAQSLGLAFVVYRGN
# T2: NTD_(1-53)-sfGFP R23A (H. neapolitanus, UniProt O85042 1-53, R23A)
# T2 construct: first 53 residues of CsoSCA, H. neapolitanus, with R23A; source: E. coli, purified (His-tag purification); not shown: sfGFP, C-terminal, kept; His tag, C-terminal, kept
# T2 sequence (looked up): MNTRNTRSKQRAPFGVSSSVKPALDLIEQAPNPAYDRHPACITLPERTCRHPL
# T3: NTD_(1-53)-sfGFP P22A (H. neapolitanus, UniProt O85042 1-53, P22A)
# T3 construct: first 53 residues of CsoSCA, H. neapolitanus, with P22A; source: E. coli, purified (His-tag purification); not shown: sfGFP, C-terminal, kept; His tag, C-terminal, kept
# T3 sequence (looked up): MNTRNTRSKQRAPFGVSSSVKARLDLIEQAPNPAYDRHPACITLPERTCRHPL
# B1: Rubisco-strep (H. neapolitanus CbbL8S8) (complex)
# chain 1: MAVKKYSAGVKEYRQTYWMPEYTPLDSDILACFKITPQPGVDREEAAAAVAAESSTGTWTTVWTDLLTDMDYYKGRAYRIEDVPGDDAAFYAFIAYPIDLFEEGSVVNVFTSLVGNVFGFKAVRGLRLEDVRFPLAYVKTCGGPPHGIQVERDKMNKYGRPLLGCTIKPKLGLSAKNYGRAVYECLRGGLDFTKDDENINSQPFMRWRDRFLFVQDATETAEAQTGERKGHYLNVTAPTPEEMYKRAEFAKEIGAPIIMHDYITGGFTANTGLAKWCQDNGVLLHIHRAMHAVIDRNPNHGIHFRVLTKILRLSGGDHLHTGTVVGKLEGDRASTLGWIDLLRESFIPEDRSRGIFFDQDWGSMPGVFAVASGGIHVWHMPALVNIFGDDSVLQFGGGTLGHPWGNAAGAAANRVALEACVEARNQGRDIEKEGKEILTAAAQHSPELKIAMETWKEIKFEFDTVDKLDTQNR
# chain 2: MAEMQDYKQSLKYETFSYLPPMNAERIRAQIKYAIAQGWSPGIEHVEVKNSMNQYWYMWKLPFFGEQNVDNVLAEIEACRSAYPTHQVKLVAYDNYAQSLGLAFVVYRGN
# notes: Rubisco large subunit CbbL, H. neapolitanus, alpha-carboxysomal Form IA; residues V3-E457 modelled in the cryo-EM maps; Rubisco small subunit CbbS, H. neapolitanus; residues M4-N110 modelled in the cryo-EM maps; Printed both as 'strep-Rubisco' and 'Rubisco-strep'; plasmid in Dataset S4; also called strep-Rubisco; WT; source: E. coli, coexpressed with GroEL/ES, purified (Strep-tag purification); …
# B2: NTD_(1-53)-sfGFP (domain or fragment, H. neapolitanus, UniProt O85042 1-53, looked up)
# chain: MNTRNTRSKQRAPFGVSSSVKPRLDLIEQAPNPAYDRHPACITLPERTCRHPL
# notes: first 53 residues of CsoSCA (unstructured N-terminal peptide), H. neapolitanus; Fused to monomeric superfolder GFP; Linker, if any, is in Dataset S4; also called NTD_(1-53)-sfGFP-His; source: E. coli, purified (His-tag purification); not shown: sfGFP, C-terminal, kept; His tag, C-terminal, kept
# Columns and labels:
# [1] = molecular target: B1; assay: cryo-EM structure; 0.5 μM Rubisco-strep with 0.5 mM NTD_(1-50) peptide; 25 mM Tris pH 7.5, 80 mM NaCl, 2% glycerol; two reconstructions (State-1, State-2), D4 symmetry; conditions: both partners purified
# [2] = molecular target: T1, CbbS, Rubisco small subunit (as in …); assay: as above; conditions: both partners purified
# NTD_(1-53)-sfGFP = molecular target: B2; assay: BLI; 5 μg/mL NTD_(1-53)-sfGFP-His (or point mutant) immobilised on Ni-NTA biosensors; strep-Rubisco (WT 250–3.9 nM, or mutant) as prey; 25 mM Tris pH 7.5, 70 mM NaCl, 0.01% Triton X100; 1:2 (Bivalent Analyte) binding model; conditions: both partners purified
# NTD_(1-53)-sfGFP R23A = molecular target: T2, NTD_(1-53)-sfGFP R23A; assay: as above; conditions: both partners purified
# NTD_(1-53)-sfGFP P22A = molecular target: T3, NTD_(1-53)-sfGFP P22A; assay: as above; conditions: both partners purified
# [3] = molecular target: the molecule itself; assay: cryo-EM structure; 0.5 μM Rubisco-strep with 0.5 mM NTD_(1-50) peptide; 25 mM Tris pH 7.5, 80 mM NaCl, 2% glycerol; two reconstructions (State-1, State-2), D4 symmetry
# [4] = molecular target: B1; assay: SEC; NTD_(1-53)-sfGFP and Rubisco-strep mixed 32:1 (NTD_(1-53)-sfGFP:CbbL8S8); Superose 6 Increase 3.2/300; 20 mM Tris pH 7.5, 150 mM NaCl, 4 °C; A280 and A485; conditions: both partners purified
# [5] = molecular target: T4, Rubisco-strep (CbbL8S8) from Halothiobacillus neapolitanus (H. neapolitanus, UniProt O85040 1-473; P45686 1-110); assay: SEC; Superose 6 Increase 3.2/300, 20 mM Tris pH 7.5, 150 mM NaCl, 4 °C; NTD1-53-sfGFP:CbbL8S8 mixed 32:1; A280 and A485 monitored; conditions: both partners purified
# T4 construct: Rubisco large subunit CbbL, Halothiobacillus neapolitanus; Rubisco small subunit CbbS, Halothiobacillus neapolitanus; also called strep-Rubisco; source: E. coli (BL21-A1 or BW25113, see Dataset S4), co-expressed with GroEL/ES, purified (StrepTrap); copies: 8 + 8
Binder,KD2 (second set of the 1:2 fit) (NTD_(1-53)-sfGFP) [nM],KD (first set of the 1:2 fit) (NTD_(1-53)-sfGFP) [nM],koff2 (second set of the 1:2 fit) (NTD_(1-53)-sfGFP) [s⁻¹],koff (first set of the 1:2 fit) (NTD_(1-53)-sfGFP) [s⁻¹],kon2 (second set of the 1:2 fit) (NTD_(1-53)-sfGFP) [M⁻¹ s⁻¹],kon (first set of the 1:2 fit) (NTD_(1-53)-sfGFP) [M⁻¹ s⁻¹],also measured
"MNTRNTRSKQRAPFGVSSSVKPRLDLIEQAPNPAYDRHPACITLPERTCR (peptide, UniProt O85042 1-50, looked up, first 50 residues of CsoSCA, H. neapolitanus; also called NTD peptide; N50 peptide) [NTD_(1-50) peptide (CsoSCA residue 1-50)]",,,,,,,stoichiometry N [1]: 8; binding result [2]: binds
B1,80 ± 1,33 ± 0.4,0.11,0.0069,1.4e+06,210000,KD2 (second set of the 1:2 fit) (NTD_(1-53)-sfGFP R23A): 130 ± 2 nM; KD (first set of the 1:2 fit) (NTD_(1-53)-sfGFP R23A): 17 ± 0.2 nM; koff2 (second set of the 1:2 fit) (NTD_(1-53)-sfGFP R23A): 0.061 s⁻¹; koff (first set of the 1:2 fit) (NTD_(1-53)-sfGFP R23A): 0.0033 s⁻¹; kon2 (second set of the 1:2 fit) (NTD_(1-53)-sfGFP R23A): 460000 M⁻¹ s⁻¹; kon (first set of the 1:2 fit) (NTD_(1-53)-sfGFP R23A): 190000 M⁻¹ s⁻¹; KD2 (second set of the 1:2 fit) (NTD_(1-53)-sfGFP P22A): 6.5 ± 0.4 µM; KD (first set of the 1:2 fit) (NTD_(1-53)-sfGFP P22A): 18 µM; koff2 (second set of the 1:2 fit) (NTD_(1-53)-sfGFP P22A): 0.44 s⁻¹; koff (first set of the 1:2 fit) (NTD_(1-53)-sfGFP P22A): 0.044 s⁻¹; kon2 (second set of the 1:2 fit) (NTD_(1-53)-sfGFP P22A): 68000 M⁻¹ s⁻¹; kon (first set of the 1:2 fit) (NTD_(1-53)-sfGFP P22A): 2400 M⁻¹ s⁻¹
"CbbL, Rubisco large subunit (as in Rubisco-strep) (natural protein, H. neapolitanus, Rubisco large subunit CbbL, H. neapolitanus; residues V3-E457 modelled; Subunit of m2, written on its own for the contacts in the cryo-EM structure; also called CbbLA; CbbLB; source: E. coli, coexpressed with GroEL/ES, purified as Rubisco-strep) MAVKKYSAGVKEYRQTYWMPEYTPLDSDILACFKITPQPGVDREEAAAAVAAESSTGTWTTVWTDLLTDMDYYKGRAYRIEDVPGDDAAFYAFIAYPIDLFEEGSVVNVFTSLVGNVFGFKAVRGLRLEDVRFPLAYVKTCGGPPHGIQVERDKMNKYGRPLLGCTIKPKLGLSAKNYGRAVYECLRGGLDFTKDDENINSQPFMRWRDRFLFVQDATETAEAQTGERKGHYLNVTAPTPEEMYKRAEFAKEIGAPIIMHDYITGGFTANTGLAKWCQDNGVLLHIHRAMHAVIDRNPNHGIHFRVLTKILRLSGGDHLHTGTVVGKLEGDRASTLGWIDLLRESFIPEDRSRGIFFDQDWGSMPGVFAVASGGIHVWHMPALVNIFGDDSVLQFGGGTLGHPWGNAAGAAANRVALEACVEARNQGRDIEKEGKEILTAAAQHSPELKIAMETWKEIKFEFDTVDKLDTQNR",,,,,,,binding result [3]: binds
B2,,,,,,,binding result [4]: binds
"Rubisco Y72A (complex, H. neapolitanus, Rubisco large subunit CbbL, H. neapolitanus, with Y72A (the text places Y72 on CbbL); Rubisco small subunit CbbS, H. neapolitanus; Plasmid in Dataset S4; source: E. coli, coexpressed with GroEL/ES, purified (Strep-tag purification); copies: 8 + 8) chain 1: MAVKKYSAGVKEYRQTYWMPEYTPLDSDILACFKITPQPGVDREEAAAAVAAESSTGTWTTVWTDLLTDMDAYKGRAYRIEDVPGDDAAFYAFIAYPIDLFEEGSVVNVFTSLVGNVFGFKAVRGLRLEDVRFPLAYVKTCGGPPHGIQVERDKMNKYGRPLLGCTIKPKLGLSAKNYGRAVYECLRGGLDFTKDDENINSQPFMRWRDRFLFVQDATETAEAQTGERKGHYLNVTAPTPEEMYKRAEFAKEIGAPIIMHDYITGGFTANTGLAKWCQDNGVLLHIHRAMHAVIDRNPNHGIHFRVLTKILRLSGGDHLHTGTVVGKLEGDRASTLGWIDLLRESFIPEDRSRGIFFDQDWGSMPGVFAVASGGIHVWHMPALVNIFGDDSVLQFGGGTLGHPWGNAAGAAANRVALEACVEARNQGRDIEKEGKEILTAAAQHSPELKIAMETWKEIKFEFDTVDKLDTQNR chain 2: MAEMQDYKQSLKYETFSYLPPMNAERIRAQIKYAIAQGWSPGIEHVEVKNSMNQYWYMWKLPFFGEQNVDNVLAEIEACRSAYPTHQVKLVAYDNYAQSLGLAFVVYRGN",820 ± 11,320 ± 6,0.15,0.0089,180000,28000,
"Rubisco D99A (complex, H. neapolitanus, Rubisco large subunit CbbL, H. neapolitanus, with D99A (the text places D99 on CbbL); Rubisco small subunit CbbS, H. neapolitanus; Plasmid in Dataset S4; source: E. coli, coexpressed with GroEL/ES, purified (Strep-tag purification); copies: 8 + 8) chain 1: MAVKKYSAGVKEYRQTYWMPEYTPLDSDILACFKITPQPGVDREEAAAAVAAESSTGTWTTVWTDLLTDMDYYKGRAYRIEDVPGDDAAFYAFIAYPIALFEEGSVVNVFTSLVGNVFGFKAVRGLRLEDVRFPLAYVKTCGGPPHGIQVERDKMNKYGRPLLGCTIKPKLGLSAKNYGRAVYECLRGGLDFTKDDENINSQPFMRWRDRFLFVQDATETAEAQTGERKGHYLNVTAPTPEEMYKRAEFAKEIGAPIIMHDYITGGFTANTGLAKWCQDNGVLLHIHRAMHAVIDRNPNHGIHFRVLTKILRLSGGDHLHTGTVVGKLEGDRASTLGWIDLLRESFIPEDRSRGIFFDQDWGSMPGVFAVASGGIHVWHMPALVNIFGDDSVLQFGGGTLGHPWGNAAGAAANRVALEACVEARNQGRDIEKEGKEILTAAAQHSPELKIAMETWKEIKFEFDTVDKLDTQNR chain 2: MAEMQDYKQSLKYETFSYLPPMNAERIRAQIKYAIAQGWSPGIEHVEVKNSMNQYWYMWKLPFFGEQNVDNVLAEIEACRSAYPTHQVKLVAYDNYAQSLGLAFVVYRGN",1100 ± 14,400 ± 10,0.15,0.0059,130000,15000,
"NTD1-53-sfGFP-His, first 53 residues of CsoSCA fused to superfolder GFP (domain or fragment, H. neapolitanus, UniProt O85042 1-53, looked up, first 53 residues of CsoSCA, Halothiobacillus neapolitanus; source: E. coli (see Dataset S4), purified (His-tag purification)) MNTRNTRSKQRAPFGVSSSVKPRLDLIEQAPNPAYDRHPACITLPERTCRHPL",,,,,,,binding result [5]: binds

# From PMC10614612, “Identification of a carbonic anhydrase–Rubisco complex within the alpha-carboxysome” (Proceedings of the National Academy of Sciences of the …, 2023)
